{"source": "patent US20230287068A1", "about": "“KERATIN BD-6, PREPARATION METHOD THEREFOR AND PHARMACEUTICAL COMPOSITION AND USE THEREOF” (INSTITUTE OF MATERIAL MEDICA, CHINESE ACADEMY OF MEDICAL …, priority 2019, published 2023)", "molecules": {"B1": {"name": "BD-6: recombinant keratin with the amino acid sequence SEQ ID NO:1, expressed in E. coli, about 45 kD; protein of Example 4 (protein, listed as Bos taurus)", "chain": "MTTTIRHFSSGSIKGSSGLAGGSSRSCRVSGSLGGGSCRLGSAGGLGSGLGGSSYSSCYSFGSGGSYGSGGYVSGGYGGGFGGVDGLLVGGEKATMQNLNDRLASYLDKVRALEEANTELELKIRDWYQKQAPGPAPDYSSYFKTIEDLRNKIHTATVDNANLLLQIDNARLAADDFRTKFETEQALRVSVEADINGLRRVLDELTLARADLEMQIENLKEELAYLRKNHEEEMKALRGQVGGEINVEMDAAPGVDLSRILNEMRDQYEKMAEKNRKDAEDWFFSKTEELNREVATNSELVQSGKSEISELRRTLQALEIELQSQLSMKASLEGSLAETENRYCMQLSQIQGLIGSVEEQLAQLRCEMEQQNQEYKILLDVKTRLEQEIATYRRLLEGEDAHLTQYKTKEPVTTRQVRTIVEEVQDGRVISSREQVHQTSH"}}, "key": {"[1]": {"system": "PTZ-induced epilepsy in mice", "test": "Pentylenetetrazole (PTZ) induced epilepsy in mice", "assay_type": "in vivo, ICR mice", "conditions": "for Cases of deaths / Grade IV seizure rate / mortality rate / Cases of Grade IV / Grade III seizure incubation period / Grade IV seizure incubation period: PTZ 65 mg/kg i.p.; for Cases of deaths / Grade IV seizure rate / mortality rate / Cases of Grade IV: 10 mice; for Cases of Grade IV: 15 min observation; for Grade III seizure incubation period / Grade IV seizure incubation period: mean±SEM; for Grade IV seizure incubation period: maximum 900 seconds", "description": "• Animals: male ICR mice; • Medicines: Pentylenetetrazol (PTZ), Retigabine, Protein BD-6. • Experiment grouping: • Model group; • Retigabine 60 mg/kg group; • Protein BD-6, 50 mg/kg group, 200 mg/kg group;\nThe drug was administered once in the afternoon the day before modeling, On the day of modeling, PTZ-65 mg/kg (modeling agent) was injected intraperitoneal 1 hour after the test drug was administered intragastrically, and the positive drug can be administered once half an hour before modeling. Continue to observe for 15 minutes after injection of PTZ.\nObservation index: ①Seizure situation: the time of seizures from Grade III to Grade VI; ②Death situation\nSeizure grade: Refer to Racine grading standard: Grade 0: No response; Grade I: manifested as twitching of facial muscles or the corners of the mouth; Grade II: can nod; Grade III: twitching of one limb; Grade IV: rigidity or body twitching; Grade V: generalized epilepsy (generalized tonic seizures).\nCount the cases of seizures and deaths in each group of mice in the experiment; Grade III and IV incubation period. The incubation period of mice that have not attacked to Grade IV is recorded as the maximum of 900 seconds. Chi-square test was used for statistics of the number of cases. Calculate the mean and standard error of the incubation period. Use TTEST to compare the model group with other groups, and P<0.05 is considered as a significant difference."}, "[2]": {"system": "mice cough induced by ammonia water", "test": "Antitussive test, cough induced by ammonia water in mice", "assay_type": "in vivo, ICR mice", "conditions": "for Incubation period (cough): 10% ammonia water 10 seconds; for Incubation period (cough) / Number of coughs: X±SEM; for Number of coughs: within 2 minutes", "description": "• Animals: male ICR mice; • Drugs and reagents: dextromethorphan hydrobromide, ammonia water, 0.2% CMC-Na, protein BD-6; • Apparatus: Compressed nebulizer (403T type), balance (XS105DU type). • Experiment grouping: • Solvent control group; • Dextromethorphan 15 mg/kg group; • Protein BD-6, 20 mg/kg group, 50 mg/kg group.\nDextromethorphan and different doses of protein BD-6 (administration volume 10 ml/kg) were given orally in groups, and the solvent control group was given the same volume of distilled water. One hour later, mice were put into a sealed box and atomized 10% ammonia water for 10 seconds, and then observed and recorded the incubation period of cough in mice and the number of coughs in 2 minutes.\nRecord the time point of oral administration, the time point of atomization experiment, the incubation period of mice cough and the number of coughs within 2 minutes, respectively. The incubation period of cough refers to the number of seconds from the start of the atomization of ammonia to the occurrence of cough. The performance of coughing in mice is based on contraction of their abdominal muscles (breast contraction) and opening their mouths at the same time. Calculate the mean and standard error of each group of data, and use TTEST to compare the model group with other groups, and P<0.05 is considered as a significant difference."}, "[3]": {"system": "lipopolysaccharide (LPS) induced fever model in rats", "test": "Lipopolysaccharide (LPS) induced fever model in SD rats", "assay_type": "in vivo", "conditions": "for Body temperature 2 hours after modeling / Body temperature 4 hours after modeling / Body temperature 6 hours after modeling / Body temperature 8 hours after modeling: LPS 20 µg/kg i.p., SD rats", "description": "• Animals: 230-260 grams of male SD rats; • Drugs: lipopolysaccharide (LPS, SIGMAL-2880), aspirin (SIGMAA2093), protein BD-6; • Instruments: electronic balance (SARTORIUS BP121S type), electronic clinical thermometer (CITIZEN CT-513W type). • Experiment grouping: • Normal control group; • Model group: lipopolysaccharide fever model; • Positive control group: Aspirin 300 mg/kg group; • Protein BD-6, 10 mg/kg group, 50 mg/kg group.\nMethod: the method of intraperitoneal injection of Lipopolysaccharide to replicate rat fever model.\nPreparation of experimental animals: After the experimental animals adapt to the experimental environment (temperature 22° C.±2° C., relative humidity 50%±2%) for 1 day. Pre-adaptation to measure rectal temperature at 8:00 and 15:00, rats were fasted and water was taken freely 12 h before experiment, and let the animal to empty its feces before measuring the rectal temperature. Apply petroleum jelly to the electronic thermometer probe before each temperature measurement. Insert the rat rectum 2 cm (can be marked at 2 cm to ensure that the depth of each insertion is consistent), and record the body temperature after the reading is stable.\nIntraperitoneal injection of lipopolysaccharide to replicate rat fever model: The body temperature of the rats was measured before modeling. Qualified rats with a body temperature of 36.2-37.3° C. were selected and randomly divided into groups with 8 rats in each group. After oral administration of aspirin and different doses of protein BD-6, lipopolysaccharide (20 µg/kg, 2 ml/kg) was injected intraperitoneally immediately, and the normal control group was injected intraperitoneally with an equal volume of normal saline. The body temperatures of the rats were monitored after 2 hours for a total of 8 hours.\nAccording to the body temperature measured at each time point on the day of the experiment, calculate the mean, standard deviation and standard error of the body temperature of each group of rats. The data of each group was compared with TTEST, and P<0.05 was considered as a significant difference."}}, "data": [{"molecule": "B1", "values": [{"measurement": "Incubation period of Grade III epilepsy vs model group (in words)", "setting": "[1]; BD-6 50 mg/kg and 200 mg/kg, PTZ model", "result": "have statistical differences compared with the model group"}, {"measurement": "Cases of deaths", "setting": "[1]; BD-6 50 mg/kg intragastric", "result": 0}, {"measurement": "Grade IV seizure rate", "setting": "[1]; BD-6 50 mg/kg intragastric", "result": 60, "unit": "%"}, {"measurement": "mortality rate", "setting": "[1]; BD-6 50 mg/kg intragastric", "result": 0, "unit": "%"}, {"measurement": "Cases of Grade IV", "setting": "[1]; BD-6 50 mg/kg intragastric", "result": 6}, {"measurement": "Grade III seizure incubation period", "setting": "[1]; BD-6 50 mg/kg intragastric", "result": "74±5^∗∗ s"}, {"measurement": "Grade IV seizure incubation period", "setting": "[1]; BD-6 50 mg/kg intragastric", "result": "440 ± 128", "unit": "s"}, {"measurement": "Cases of deaths", "setting": "[1]; BD-6 200 mg/kg intragastric", "result": 1}, {"measurement": "Grade IV seizure rate", "setting": "[1]; BD-6 200 mg/kg intragastric", "result": 90, "unit": "%"}, {"measurement": "mortality rate", "setting": "[1]; BD-6 200 mg/kg intragastric", "result": 10, "unit": "%"}, {"measurement": "Cases of Grade IV", "setting": "[1]; BD-6 200 mg/kg intragastric", "result": 9}, {"measurement": "Grade III seizure incubation period", "setting": "[1]; BD-6 200 mg/kg intragastric", "result": "69±6^∗ s"}, {"measurement": "Grade IV seizure incubation period", "setting": "[1]; BD-6 200 mg/kg intragastric", "result": "201 ± 81", "unit": "s"}, {"measurement": "Number of coughs vs solvent control (in words)", "setting": "[2]; BD-6 20 mg/kg and 50 mg/kg, P<0.05", "result": "significant improvement in the number of coughs"}, {"measurement": "Incubation period (cough)", "setting": "[2]; BD-6 20 mg/kg oral", "result": "33.3±3.3^∗ s"}, {"measurement": "Number of coughs", "setting": "[2]; BD-6 20 mg/kg oral", "result": "45.9±4.8^∗"}, {"measurement": "Cough incubation period vs solvent control (in words)", "setting": "[2]; BD-6 20 mg/kg, P<0.05", "result": "significant improvement effect in the incubation period"}, {"measurement": "Incubation period (cough)", "setting": "[2]; BD-6 50 mg/kg oral", "result": "30.6 ± 2.5", "unit": "s"}, {"measurement": "Number of coughs", "setting": "[2]; BD-6 50 mg/kg oral", "result": "49.8±3.8^∗"}, {"measurement": "Body temperature 2 hours after modeling", "setting": "[3]; BD-6 10 mg/kg oral", "result": "37.1±0.2", "unit": "°C"}, {"measurement": "Body temperature 4 hours after modeling", "setting": "[3]; BD-6 10 mg/kg oral", "result": "37.4±0.2", "unit": "°C"}, {"measurement": "Body temperature 6 hours after modeling", "setting": "[3]; BD-6 10 mg/kg oral", "result": "37.3±0.2", "unit": "°C"}, {"measurement": "Body temperature 8 hours after modeling", "setting": "[3]; BD-6 10 mg/kg oral", "result": "37.2±0.2", "unit": "°C"}, {"measurement": "Body temperature 2 hours after modeling", "setting": "[3]; BD-6 50 mg/kg oral", "result": "37.2±0.1", "unit": "°C"}, {"measurement": "Body temperature 4 hours after modeling", "setting": "[3]; BD-6 50 mg/kg oral", "result": "37.5±0.2", "unit": "°C"}, {"measurement": "Body temperature 6 hours after modeling", "setting": "[3]; BD-6 50 mg/kg oral", "result": "37.4±0.2", "unit": "°C"}, {"measurement": "Body temperature 8 hours after modeling", "setting": "[3]; BD-6 50 mg/kg oral", "result": "37.4±0.2", "unit": "°C"}, {"measurement": "Effect on body temperature (in words)", "setting": "[3]; BD-6 10 and 50 mg/kg, 2 hours after modeling, P<0.05 vs model group", "result": "can reduce the body temperature of the model rats to different degrees"}]}]}
